The target of the assay is Transforming Growth Factor Beta Receptor II (TGFBRII) (human) (UniProt P37173). In words: cell-based or functional assay.
Chain of Transforming Growth Factor Beta Receptor II (TGFBRII) (human) (P37173 23-567): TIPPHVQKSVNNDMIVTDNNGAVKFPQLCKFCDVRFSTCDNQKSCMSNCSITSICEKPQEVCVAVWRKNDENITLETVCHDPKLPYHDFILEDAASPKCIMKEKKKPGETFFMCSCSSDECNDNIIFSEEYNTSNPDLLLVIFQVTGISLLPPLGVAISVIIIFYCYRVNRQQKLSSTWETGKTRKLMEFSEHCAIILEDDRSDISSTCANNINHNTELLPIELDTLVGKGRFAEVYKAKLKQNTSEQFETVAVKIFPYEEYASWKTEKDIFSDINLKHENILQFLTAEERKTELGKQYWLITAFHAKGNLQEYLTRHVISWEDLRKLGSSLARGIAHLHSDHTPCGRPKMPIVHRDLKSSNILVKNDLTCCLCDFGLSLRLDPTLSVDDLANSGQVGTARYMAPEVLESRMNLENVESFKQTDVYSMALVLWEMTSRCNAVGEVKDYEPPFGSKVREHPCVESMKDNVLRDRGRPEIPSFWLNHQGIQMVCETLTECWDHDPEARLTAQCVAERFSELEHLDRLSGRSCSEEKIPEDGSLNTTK

In turn, “recombinant human TGF-β (from UniProt P28072 35-239) (ligand)” had a CAR T cell expansion (cell number over time) with 10, 20, 50 and 100 ng/ml TGF-β of under 10 ng/mL.

The values are drawn from patent US20220090012A1.
